Measurements reported in US20110086767A1, “MUTANTS OF GLYCOSIDE HYDROLASES AND USES THEREOF FOR SYNTHESIZING COMPLEX OLIGOSACCHARIDES AND DISACCHARIDE INTERMEDIATES” (Institut Pasteur, priority 2008, published 2011).

Experiment: HPLC screening of double-mutant libraries for variants able to glucosylate D-GlcpNAc
Assay type: biochemical
Conditions: α-D-Glcp-(1→4)-α-D-GlcpNAc (ED) from sucrose and D-GlcpNAc, microplate format
Description: The protocol was established to enable the rapid identification of clones for which D-GlcpNAc glucosylation was improved. To obtain higher amounts of enzymes and facilitate detection of glucosylated compounds upon HPLC screening, mutants were produced in 96-DeepWell Format plates. Storage microplates containing monomutants were thawed and replicated to inoculate a starter culture in 96-well microplates containing, in each well, 150 μL LB medium supplemented with ampicillin (100 μg/mL). After growth for 24 h at 30° C. under agitation (200 rpm), plates were duplicated into 96-Deep Well plates containing, in each well, 1.1 mL LB medium supplemented with ampicillin (100 μg/mL) and IPTG (1 mM) to induce GST-AS expression. Cultures were then grown for 24 h at 30° C. under agitation (200 rpm). Plates were centrifuged (20 min, 3000 g, 4° C.) and the supernatant was removed. The cell pellet was resuspended in 200 μL of lysozyme (0.5 mg/mL), followed by freezing at −80° C. for 8 to 12 h. After thawing at room temperature, 100 μL of sucrose and 100 μL of acceptor (each at a final concentration of 73 mM) were added to each well. Enzymatic reaction was incubated at 30° C. during 24 h under agitation. The DeepWell plates were then centrifuged (20 min, 3000 g, 4° C.) and 300 μL of the supernatant was transferred to a filter micro-plate (PVDF 0.2 μm) to be clarified. Supernatant filtration was carried out by centrifugation of the filter micro-plate (5 min, 2000 g, 4° C.) into a novel microplate for screening.
The method for the expression of the mutant libraries is described in Example 1-1.
Acceptor reaction products were analyzed by HPLC analysis using a C18-AQ column (Bischoff C18, 125×4 mm, 3 μm) kept at room temperature and eluted with 0.6 mL/min of ultra-pure water to detect α-D-Glcp-(1→4)-α-D-GlcpNAc formation (analysis time: 7 min). To evaluate the efficiency of the glucosylation reaction, it was carried out complementary HPLC analyses with a Biorad HPX-87K Carbohydrate Analysis column (maintained at 65° C., and eluted at a flow rate of 0.6 mL/min with ultra-pure water). By this way, it was possible to measure sucrose consumption by RI detection and concomitant α-D-Glcp-(1-4)-α-D-GlcpNAc formation by UV220 nm and determine mutant ability to synthesize the desired disaccharide α-D-Glcp-(1→4)-α-D-GlcpNAc (i.e., % Glucosyl units transferred onto acceptor derivatives=[Glucosyl units transferred onto acceptor derivatives]/[Glucosyl units transferred from initial sucrose]×100)
All clones producing sucrose-utilizing variants were then picked and cultured in 96-well microplates. Following cell lysis, the acceptor reaction in the presence of D-GlcpNAc was then carried out in microplate format. HLPC analysis time for each clone was reduced to 7 min for detection of α-D-Glcp-(1→4)-α-D-GlcpNAc. When disaccharide formation was detected, complementary analyses were performed to determine sucrose consumption and disaccharide formation with more accuracy in order to calculate the glucosylation yield.

B1: F290V: single mutant F290V of N. polysaccharea amylosucrase (protein)
chain: SPNSQYLKTRILDIYTPEQRAGIEKSEDWRQFSRRMDTHFPKLMNELDSVYGNNEALLPMLEMLLAQAWQSYSQRNSSLKDIDIARENNPDWILSNKQVGGVCYVDLFAGDLKGLKDKIPYFQELGLTYLHLMPLFKCPEGKSDGGYAVSSYRDVNPALGTIGDLREVIAALHEAGISAVVDFIFNHTSNEHEWAQRCAAGDPLFDNFYYIFPDRRMPDQYDRTLREIFPDQHPGGFSQLEDGRWVWTTFNSFQWDLNYSNPWVFRAMAGEMLFLANLGVDILRMDAVAVIWKQMGTSCENLPQAHALIRAFNAVMRIAAPAVFFKSEAIVHPDQVVQYIGQDECQIGYNPLQMALLWNTLATREVNLLHQALTYRHNLPEHTAWVNYVRSHDDIGWTFADEDAAYLGISGYDHRQFLNRFFVNRFDGSFARGVPFQYNPSTGDCRVSGTAAALVGLAQDDPHAVDRIKLLYSIALSTGGLPLIYLGDEVGTLNDDDWSQDSNKSDDSRWAHRPRYNEALYAQRNDPSTAAGQIYQDLRHMIAVRQSNPRFDGGRLVTFNTNNKHIIGYIRNNALLAFGNFSEYPQTVTAHTLQAMPFKAHDLIGGKTVSLNQDLTLQPYQVMWLEIA
- Glusosylation Yield to synthesize ED: 100%

B2: I228V-F290V: double mutant I228V, F290V of N. polysaccharea amylosucrase (protein)
chain: SPNSQYLKTRILDIYTPEQRAGIEKSEDWRQFSRRMDTHFPKLMNELDSVYGNNEALLPMLEMLLAQAWQSYSQRNSSLKDIDIARENNPDWILSNKQVGGVCYVDLFAGDLKGLKDKIPYFQELGLTYLHLMPLFKCPEGKSDGGYAVSSYRDVNPALGTIGDLREVIAALHEAGISAVVDFIFNHTSNEHEWAQRCAAGDPLFDNFYYIFPDRRMPDQYDRTLREVFPDQHPGGFSQLEDGRWVWTTFNSFQWDLNYSNPWVFRAMAGEMLFLANLGVDILRMDAVAVIWKQMGTSCENLPQAHALIRAFNAVMRIAAPAVFFKSEAIVHPDQVVQYIGQDECQIGYNPLQMALLWNTLATREVNLLHQALTYRHNLPEHTAWVNYVRSHDDIGWTFADEDAAYLGISGYDHRQFLNRFFVNRFDGSFARGVPFQYNPSTGDCRVSGTAAALVGLAQDDPHAVDRIKLLYSIALSTGGLPLIYLGDEVGTLNDDDWSQDSNKSDDSRWAHRPRYNEALYAQRNDPSTAAGQIYQDLRHMIAVRQSNPRFDGGRLVTFNTNNKHIIGYIRNNALLAFGNFSEYPQTVTAHTLQAMPFKAHDLIGGKTVSLNQDLTLQPYQVMWLEIA
- Glusosylation Yield to synthesize ED (listed as DM4_P1_G7): 90%
- Glusosylation Yield to synthesize ED (listed as DM4_P2_B10): 47%

B3: F290R: single mutant F290R of N. polysaccharea amylosucrase (protein)
chain: SPNSQYLKTRILDIYTPEQRAGIEKSEDWRQFSRRMDTHFPKLMNELDSVYGNNEALLPMLEMLLAQAWQSYSQRNSSLKDIDIARENNPDWILSNKQVGGVCYVDLFAGDLKGLKDKIPYFQELGLTYLHLMPLFKCPEGKSDGGYAVSSYRDVNPALGTIGDLREVIAALHEAGISAVVDFIFNHTSNEHEWAQRCAAGDPLFDNFYYIFPDRRMPDQYDRTLREIFPDQHPGGFSQLEDGRWVWTTFNSFQWDLNYSNPWVFRAMAGEMLFLANLGVDILRMDAVARIWKQMGTSCENLPQAHALIRAFNAVMRIAAPAVFFKSEAIVHPDQVVQYIGQDECQIGYNPLQMALLWNTLATREVNLLHQALTYRHNLPEHTAWVNYVRSHDDIGWTFADEDAAYLGISGYDHRQFLNRFFVNRFDGSFARGVPFQYNPSTGDCRVSGTAAALVGLAQDDPHAVDRIKLLYSIALSTGGLPLIYLGDEVGTLNDDDWSQDSNKSDDSRWAHRPRYNEALYAQRNDPSTAAGQIYQDLRHMIAVRQSNPRFDGGRLVTFNTNNKHIIGYIRNNALLAFGNFSEYPQTVTAHTLQAMPFKAHDLIGGKTVSLNQDLTLQPYQVMWLEIA
- Glusosylation Yield to synthesize ED: 100%
